Consider ten sequences from article PMC11358422.

Common to all, as to experiment: ELISA
A general note: An ELISA detects its analyte on a solid surface through an enzyme-linked reagent.

In one data set the target is hemoglobin (UniProt P69905+P68871). As to conditions: 5' biotin, ELISA: suspension coated in 100 mM NaHCO3 pH 9.6, 5% CSA block, aptamer in Base Pair Aptamer Folding Buffer, washes 0.02% Tween-20 in PBS, microscopy: aptamer ….
For data set [1], the target named is gelatin (collagen) (bovine skin) (UniProt P02453+P02465). The conditions noted are these: gelatin suspension; 5' biotin; ELISA: suspension coated in 100 mM NaHCO3 pH 9.6, 5% CSA block, aptamer in Base Pair Aptamer Folding Buffer, washes 0.02% Tween-20 in PBS; microscopy: aptamer ….
In data set [2] the target is T1, beta-casein / beta-casomorphin-7 (UniProt P02666).
T1 sequence: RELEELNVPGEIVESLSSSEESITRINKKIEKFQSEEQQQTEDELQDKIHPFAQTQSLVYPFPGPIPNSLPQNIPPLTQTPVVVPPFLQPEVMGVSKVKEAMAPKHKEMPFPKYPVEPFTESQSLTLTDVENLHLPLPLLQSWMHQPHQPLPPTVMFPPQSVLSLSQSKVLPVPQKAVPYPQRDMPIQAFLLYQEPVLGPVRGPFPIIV
The conditions noted are these: raw milk; 5' biotin; ELISA: suspension coated in 100 mM NaHCO3 pH 9.6, 5% CSA block, aptamer in Base Pair Aptamer Folding Buffer, washes 0.02% Tween-20 in PBS; microscopy: aptamer ….

Another data set deals with gluten (gliadin) (wheat). As to conditions: wheat flour suspension; 5' biotin; ELISA: suspension coated in 100 mM NaHCO3 pH 9.6, 5% CSA block, aptamer in Base Pair Aptamer Folding Buffer, washes 0.02% Tween-20 in PBS; microscopy: aptamer ….
For a further data set, the target named is T2, beta-lactoglobulin (UniProt P02754).
T2 sequence: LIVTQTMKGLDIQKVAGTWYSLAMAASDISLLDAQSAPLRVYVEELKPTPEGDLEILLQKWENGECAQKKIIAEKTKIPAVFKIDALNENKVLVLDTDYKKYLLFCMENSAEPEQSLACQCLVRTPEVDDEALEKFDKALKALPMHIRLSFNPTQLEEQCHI
As to conditions: raw milk; 5' biotin; ELISA: suspension coated in 100 mM NaHCO3 pH 9.6, 5% CSA block, aptamer in Base Pair Aptamer Folding Buffer, washes 0.02% Tween-20 in PBS; microscopy: aptamer ….

In data set [3] the test system is parvalbumin (trout ('fish traut')). As to conditions: fish trout suspension; 5' biotin; ELISA: suspension coated in 100 mM NaHCO3 pH 9.6, 5% CSA block, aptamer in Base Pair Aptamer Folding Buffer, washes 0.02% Tween-20 in PBS; microscopy: aptamer ….

hemoglobin, sequence (P69905 2-142, chain 1 of 2): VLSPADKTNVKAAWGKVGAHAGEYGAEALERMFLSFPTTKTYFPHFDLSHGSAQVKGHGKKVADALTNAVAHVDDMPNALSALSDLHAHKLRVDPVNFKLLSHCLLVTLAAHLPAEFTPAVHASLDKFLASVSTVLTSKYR
hemoglobin, sequence (P68871 2-147, chain 2 of 2): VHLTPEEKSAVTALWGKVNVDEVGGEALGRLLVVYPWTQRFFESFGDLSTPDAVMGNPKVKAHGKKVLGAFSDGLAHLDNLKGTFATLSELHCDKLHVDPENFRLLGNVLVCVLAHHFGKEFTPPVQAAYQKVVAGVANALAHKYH
gelatin (collagen) (bovine skin), sequence (P02453 whole entry, chain 1 of 2): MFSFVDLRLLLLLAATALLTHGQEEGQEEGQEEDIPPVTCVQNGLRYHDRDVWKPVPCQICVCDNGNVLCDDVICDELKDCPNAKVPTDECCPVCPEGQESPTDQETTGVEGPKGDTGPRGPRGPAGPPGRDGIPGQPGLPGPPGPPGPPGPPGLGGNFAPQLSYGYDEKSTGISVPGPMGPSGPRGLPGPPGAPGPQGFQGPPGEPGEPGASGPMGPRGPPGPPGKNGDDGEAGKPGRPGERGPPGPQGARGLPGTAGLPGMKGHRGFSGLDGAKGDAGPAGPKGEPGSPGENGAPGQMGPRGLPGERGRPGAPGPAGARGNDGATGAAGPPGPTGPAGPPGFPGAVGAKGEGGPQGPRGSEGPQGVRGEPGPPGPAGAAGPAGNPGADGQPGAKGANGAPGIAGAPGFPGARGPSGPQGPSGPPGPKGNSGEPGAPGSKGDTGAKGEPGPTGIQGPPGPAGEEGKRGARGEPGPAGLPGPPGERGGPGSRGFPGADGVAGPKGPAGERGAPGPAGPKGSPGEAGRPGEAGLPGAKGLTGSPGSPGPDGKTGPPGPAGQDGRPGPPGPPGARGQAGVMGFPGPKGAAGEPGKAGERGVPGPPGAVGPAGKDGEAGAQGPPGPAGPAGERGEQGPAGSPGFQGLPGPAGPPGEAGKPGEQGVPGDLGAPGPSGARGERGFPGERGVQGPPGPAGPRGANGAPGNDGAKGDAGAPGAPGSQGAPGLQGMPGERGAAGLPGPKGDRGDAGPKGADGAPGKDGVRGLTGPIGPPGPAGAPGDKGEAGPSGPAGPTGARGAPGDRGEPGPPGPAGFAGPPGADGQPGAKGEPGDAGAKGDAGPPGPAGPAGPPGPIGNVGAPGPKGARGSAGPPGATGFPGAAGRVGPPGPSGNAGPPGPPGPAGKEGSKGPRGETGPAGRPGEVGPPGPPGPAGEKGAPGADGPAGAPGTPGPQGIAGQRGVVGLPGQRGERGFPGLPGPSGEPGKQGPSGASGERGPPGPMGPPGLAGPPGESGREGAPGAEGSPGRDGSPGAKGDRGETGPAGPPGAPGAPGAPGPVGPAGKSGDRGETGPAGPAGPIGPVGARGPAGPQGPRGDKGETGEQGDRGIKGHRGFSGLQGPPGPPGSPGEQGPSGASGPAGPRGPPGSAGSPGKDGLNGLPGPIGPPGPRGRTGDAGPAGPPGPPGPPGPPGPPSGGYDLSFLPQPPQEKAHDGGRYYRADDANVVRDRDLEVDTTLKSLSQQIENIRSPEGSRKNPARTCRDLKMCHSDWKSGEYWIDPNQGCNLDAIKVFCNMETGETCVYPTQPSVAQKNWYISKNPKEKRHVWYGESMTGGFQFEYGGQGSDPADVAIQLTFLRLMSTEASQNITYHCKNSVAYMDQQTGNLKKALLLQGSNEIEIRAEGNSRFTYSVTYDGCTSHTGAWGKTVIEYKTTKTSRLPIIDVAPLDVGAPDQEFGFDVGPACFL
gelatin (collagen) (bovine skin), sequence (P02465 whole entry, chain 2 of 2): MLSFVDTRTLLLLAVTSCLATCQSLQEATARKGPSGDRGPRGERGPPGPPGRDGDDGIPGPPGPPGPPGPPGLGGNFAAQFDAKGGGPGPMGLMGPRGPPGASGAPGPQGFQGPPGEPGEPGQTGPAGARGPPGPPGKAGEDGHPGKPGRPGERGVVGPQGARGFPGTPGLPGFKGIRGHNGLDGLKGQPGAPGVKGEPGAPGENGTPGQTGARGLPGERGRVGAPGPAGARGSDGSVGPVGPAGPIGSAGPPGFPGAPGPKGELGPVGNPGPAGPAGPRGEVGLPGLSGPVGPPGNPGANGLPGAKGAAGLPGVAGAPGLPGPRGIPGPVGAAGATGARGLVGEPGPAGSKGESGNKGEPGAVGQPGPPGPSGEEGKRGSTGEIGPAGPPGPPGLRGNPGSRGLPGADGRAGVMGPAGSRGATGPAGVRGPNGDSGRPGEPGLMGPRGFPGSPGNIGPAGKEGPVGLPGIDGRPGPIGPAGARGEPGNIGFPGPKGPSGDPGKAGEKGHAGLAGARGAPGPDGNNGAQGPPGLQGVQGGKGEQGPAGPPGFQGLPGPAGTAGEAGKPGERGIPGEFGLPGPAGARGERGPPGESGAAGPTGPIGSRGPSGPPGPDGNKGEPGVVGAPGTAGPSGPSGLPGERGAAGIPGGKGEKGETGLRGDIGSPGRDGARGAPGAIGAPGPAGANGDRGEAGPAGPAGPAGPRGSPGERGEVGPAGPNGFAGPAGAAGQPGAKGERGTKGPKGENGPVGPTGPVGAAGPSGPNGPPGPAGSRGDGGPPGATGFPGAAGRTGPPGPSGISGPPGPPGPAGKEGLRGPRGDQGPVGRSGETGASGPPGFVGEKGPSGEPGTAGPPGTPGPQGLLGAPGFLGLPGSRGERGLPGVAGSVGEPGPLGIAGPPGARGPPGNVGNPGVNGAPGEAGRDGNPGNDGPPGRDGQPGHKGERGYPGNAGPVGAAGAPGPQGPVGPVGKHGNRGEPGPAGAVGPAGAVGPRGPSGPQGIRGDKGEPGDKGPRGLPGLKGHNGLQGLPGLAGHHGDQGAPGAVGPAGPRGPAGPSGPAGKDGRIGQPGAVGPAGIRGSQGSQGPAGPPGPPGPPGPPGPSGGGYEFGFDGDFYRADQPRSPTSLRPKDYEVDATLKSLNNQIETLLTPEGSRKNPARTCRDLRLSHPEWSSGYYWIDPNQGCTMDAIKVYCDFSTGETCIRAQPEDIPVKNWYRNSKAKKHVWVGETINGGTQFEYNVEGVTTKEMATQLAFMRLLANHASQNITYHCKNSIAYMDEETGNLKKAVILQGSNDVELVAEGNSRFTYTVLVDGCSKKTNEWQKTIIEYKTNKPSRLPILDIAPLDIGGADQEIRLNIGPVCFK

In the data set with hemoglobin (signal at MilliQ control level), “ACGCACACCAGAGACAAGTAGCCCCCCAAACGCG [G15 T1]” showed a binding signal of 0.015 OD405. “ATCCGTCACACCTGCTCTAGACGAATATTGTATCCTCATTAGATCAAAAACGGGTGGTGTTGGCTCCCGTAT [CTx 2R (CTx 2R-2h)]” registered a binding signal in data set [1] of 0.615 OD405. In data set [2], “ATCCGTCACACCTGCTCTATACACATTGTGTTTACTCCCAGTTTTTTAGACTTATGGTGTTGGCTCCCGTAT [seqU5]” had a binding signal of 0.51 OD405. In the data set on gluten (gliadin) (wheat), “CCAGTCTCCCGTTTACCGCGCCTACACATGTCTGAATGCC [Gli 4]” returned a binding signal of 0.519 OD405.

As for “CGACGATCGGACCGCAGTACCCACCCACCAGCCCCAACATCATGCCCATCCGTGTGTG [BLG14]”, the binding signal with beta-lactoglobulin is 0.394 OD405. “CTAGGCGAAATATAGCTACAACTGTCTGAAGGCACCCAAT [Gli 1]” gave a binding signal with gluten (gliadin) (wheat) of 0.577 OD405. The sequence “GGCAGGAAGACAAACACCAGGTGAGGGAGACGACGCGAGTGTTAGATGGTAGCTGTTGGTCTGTGGTGCTGT [Hb]” displayed a binding signal with hemoglobin of 0.388 OD405. Still for that read-out and setting: the value for “TTAGCGAGCTGCACACACAATGGACTCGTCATACCGTGCTGTTT [HA]” was 0.471 OD405. “TTTTTGGTTGACGGCAGTCGGCGGTATGCGCATATCGTGTTGGTA [D1]”: in data set [1], the binding signal was determined as 0.4 OD405.

“TTTTTTTTGCCAAAGGAGGCGAGAGATAAAAGATTGCGAATCCATTCG [Par1]”: the binding signal in data set [3] came out at 0.412 OD405.
